What was measured:
[1] = molecular target: SETDB1 peptide RQVAVKme2STRGFALKme2STHGIAIKme2STN (human)
[2] = molecular target: SETDB1 peptide RQVAVKme3STRGFALKme3STHGIAIKme3STN (human)

Kd [1]	Kd [2]	Substance
180 µM		Cbx8 chromodomain, Cbx8-(8–61) (from UniProt Q9HC52 8-61) (domain or fragment)
15 µM	1.2 µM	Cbx7 chromodomain, Cbx7-(8–62) (from UniProt O95931 8-62) (domain or fragment)

From publication PMC3013012
